Data on one substance can be found in article PMC9851988.

The assay addresses His7-SUMO-Arc-C11^CFAS (not stated | E. coli). Description: BLI.

anhydrotrypsin (enzyme): the equilibrium response signal relative to His7-SUMO-Arc-C11^CFAS/R11A came out at 6 fold.
